Laboratory results taken from publication PMC6035297 (2018).
Square brackets hold non-standard residues; d marks the D form. Ends that are not written are not given here. pY = N[C@@H](Cc1ccc(OP(=O)(O)O)cc1)C(=O)O

Target: T1, CTpY phosphopeptide (PLCγ1 pTyr783) 779-790 (Homo sapiens, UniProt P19174)
T1 chain: NPGF[pY]VEANPMP
Assay: NMR titration

B1: PLCγ1 tandem SH2 (NSH2CSH2ΔCT) nSH2-cSH2 545-770 (protein)
chain: HSNEKWFHGKLGAGRDGRHIAERLLTEYCIETGAPDGSFLVRESETFVGDYTLSFWRNGKVQHCRIHSRQDAGTPKFFLTDNLVFDSLYDLITHYQQVPLRCNEFEMRLSEPVPQTNAHESKEWYHASLTRAQAEHMLMRVPRDGAFLVRKRNEPNSYAISFRAEGKIKHCRVQQEGQTVMLGNSEFDSLVDLISYYEKHPLYRKMKLRYPINEEALEKIGTAEPD
- Kd: < 15 µM
